Measurements as given in patent US20030100492A1, “Proteoglycans and pharmaceutical compositions comprising them” (published 2003).
Values belong to the molecule of their own block, whether it stands above or below them.

Legend:
[1] = molecular target: Soluble FGFR2-alkaline phosphatase fusion protein (FR2-AP) (human) (UniProt P05187); assay: FGF on Syn4-Fc, FGFR-AP; alkaline phosphatase activity and cross-linking of the receptors to radio-labeled bFGF
Recombinant human FGF2 = Recombinant human FGF2 (human, UniProt P09038, 125I label in the FIG. 1 assay and in the FGFR2-AP direct binding assay); assay: immunoprecipitation with anti-P710, incubation with 50 ng FGF2, FB-8 immunoblot

- fold less than with FGFR1 [1]: 2 fold less
Molecule: Recombinant human FGF2 (from UniProt P09038) (ligand)

- fold more FGF2 bound than syndecan-4 from the CHO-KI parental cells (Recombinant human FGF2): ~3 fold
B1: Mouse syndecan-4 (full length) overexpressed in CHO-KI cells (other)
chain: ESIRETEVIDPQDLLEGRYFSGALPDDEDAGGSDDFELSGSGDLDDTEEPRPFPEVIEPLVPLDNHIPENAQPGIRVPSEPKELEENEVIPKRAPSDVGDDMSNKVSMSSTVQGSNIFERTEVLAALIVGGVVGILFAVFLILLLVYRMKKKDEGSYDLGKKPIYKKAPTNEFYA
modifications: heparan sulfate chains
